Source: publication PMC6959990
One block for each substance: values may come before it.

Legend:
[1] = target: PCAT1(C21A) (Clostridium thermocellum) (UniProt A3DCU1); experiment: cryo-EM structure; PCAT1(C21A) (5 mg/ml, 62 µM monomer) mixed with 62 µM refolded CtA, 30 min on ice, in UDM, no ATP
[2] = target: PCAT1(C21A) (Clostridium thermocellum) (UniProt A3DCU1); experiment: native MS; in 200 mM ammonium acetate pH 7.5 with 0.5% C8E4 (2X CMC); 4 µM PCAT1 monomer alone, or 4 µM PCAT1(C21A) monomer + 8 µM CtA (two-fold excess of CtA); abundances corrected for gas-phase dissociation
[3] = target: PCAT1(C21A) (Clostridium thermocellum) (UniProt A3DCU1); experiment: native MS; in 200 mM ammonium acetate pH 7.5 with 0.058% UDM (2X CMC); 4 µM PCAT1 monomer alone, or 4 µM PCAT1(C21A) monomer + 8 µM CtA (two-fold excess of CtA); abundances corrected for gas-phase dissociation
[4] = target: wt PCAT1 (Clostridium thermocellum) (UniProt A3DCU1); experiment: native MS; in 200 mM ammonium acetate pH 7.5 with 0.5% C8E4 (2X CMC); 4 µM PCAT1 monomer alone, or 4 µM PCAT1(C21A) monomer + 8 µM CtA (two-fold excess of CtA); abundances corrected for gas-phase dissociation
[5] = target: wt PCAT1 (Clostridium thermocellum) (UniProt A3DCU1); experiment: native MS; in 200 mM ammonium acetate pH 7.5 with 0.058% UDM (2X CMC); 4 µM PCAT1 monomer alone, or 4 µM PCAT1(C21A) monomer + 8 µM CtA (two-fold excess of CtA); abundances corrected for gas-phase dissociation

stoichiometry N (CtA per PCAT1 transporter) [1]: 2
% abundance of the C21A-PCAT1 dimer + 1 CtA complex [2]: 16%
% abundance of the C21A-PCAT1 dimer + 2 CtA complex [2]: 84%
stoichiometry N (CtA per PCAT1 dimer) [2]: 2
% abundance of the C21A-PCAT1 dimer + 1 CtA complex [3]: 25%
% abundance of the C21A-PCAT1 dimer + 2 CtA complex [3]: 75%
stoichiometry N (CtA per PCAT1 dimer) [3]: 2
Substance: CtA (natural protein)

stoichiometry N [2]: 2
stoichiometry N [3]: 2
Substance: PCAT1(C21A) (from UniProt A3DCU1 1-727) (natural protein)

stoichiometry N [4]: 2
stoichiometry N [5]: 2
Substance: wt PCAT1 (from UniProt A3DCU1 1-727) (natural protein)
